Measurements taken from patent CN108948193A (SHANGHAI JIANXIN BIOPHARMACEUTICALS LLC, dated 2018).
Values joined by “and” are separate entries in the source; they are usually repeats but may differ in a detail not shown here. Equal entries are not always repeated.

How the values were obtained:
[1] = biological target: TIM3-hFc (human TIM-3 Fc fusion, 货号 TM3-H5258, 北京百普赛斯生物科技有限公司) (human) (UniProt Q8TDQ0); experiment: ELISA, hybridoma supernatant on TIM3-hFc captured by anti-hFc
[2] = biological target: human TIM-3 on human blood cells (PBMC / NK cells / activated T cells) (human, UniProt Q8TDQ0 22-301); experiment: cell-based or functional assay
[3] = biological target: T1, TIM3-hFc (human TIM-3 Fc fusion, 货号 TM3-H5258, 北京百普赛斯生物科技有限公司) (human, UniProt Q8TDQ0 22-200); experiment: ELISA on TIM3-hFc captured by anti-hFc
T1 construct: also called 人TIM-3; 人TIM-3抗原; not shown: human Fc (hFc) of the bought fusion

[4] = biological target: T2, 人Tim-3 (antigen used as analyte in Biacore) (human, UniProt Q8TDQ0 22-200); experiment: SPR, Biacore T200, antibody captured by Protein A on CM5, TIM-3 as analyte, 1:1 Langmuir
T2 construct: Soluble antigen flowed at 0-30 nM over antibody captured by Protein A; also called 抗原TIM-3

B1: mab5 (mouse hybridoma clone 6F3, murine anti-human TIM-3 monoclonal antibody) (antibody, V domains shown)
VH: EVKLVESEGGLVQPGGSMKLSCTASGFTFSDYYMAWVRQVPEKGLEWVANINYDGSNTYYLDSLKSRFIISRDNVKNILYLQMSSLKSEDTATYYCARGLYYYGGNYFAYWGQGTLVTVSA
VL: DILMTQSPSSMSVSLGDTVTITCHASQGISSNIGWLQQKPGKSFKGLIYQGSNLEDGVPSRFSGSGSGADYSLTISSLEYEDFADYYCVQFAQFPPTFGAGTKLELK
ELISA 数值(OD450) [1]: 1.73 OD450

B2: mab5-c (chimeric anti-human TIM-3 antibody, human IgG4-κ) (antibody, V domains shown)
VH: EVKLVESEGGLVQPGGSMKLSCTASGFTFSDYYMAWVRQVPEKGLEWVANINYDGSNTYYLDSLKSRFIISRDNVKNILYLQMSSLKSEDTATYYCARGLYYYGGNYFAYWGQGTLVTVSA
VL: DILMTQSPSSMSVSLGDTVTITCHASQGISSNIGWLQQKPGKSFKGLIYQGSNLEDGVPSRFSGSGSGADYSLTISSLEYEDFADYYCVQFAQFPPTFGAGTKLELKR
notes: Mouse mab5 variable regions on human IgG4 / kappa constant regions; expressed in HEK293E; also called 嵌合抗体mab5-c
killing activity relative to the reference antibody ABTIM3 (fold) [2]: 2.8 倍 (fold) | EC50 [3]: 0.107 nM and 0.06 nM | Kd [4]: 1.76 nM | koff [4]: 0.00244 s⁻¹ | kon [4]: 1.39e+06 M⁻¹ s⁻¹

B3: 人源化ab8抗体 (humanized anti-TIM-3 antibody ab8) (antibody, IgG4, V domains shown)
VH: EVQLVESGGGLVKPGGSLRLSCAASGFTFSDYYMAWVRQAPGKGLEWVANINYDGSNTYYLDSLKSRFTISRDNAKNSLYLQMNSLRAEDTAVYYCARGLYYYGGNYFAYWGQGTLVTVSS
VL: DIQMTQSPSSLSASVGDRVTITCHASQGISSNIGWLQQKPGKAFKGLIYQGSNLEDGVPSRFSGSGSGTDYTLTISSLQPEDFATYYCVQFAQFPPTFGQGTKLEIKR
notes: Humanized mab5; human kappa / IgG4
EC50 [3]: 0.131 nM

B4: 人源化ab6抗体 (humanized anti-TIM-3 antibody ab6) (antibody, human IgG4 S228P, kappa, V domains shown)
VH: EVQLVESGGGLVKPGGSLRLSCAASGFTFSDYYMAWVRQAPGKGLEWVANINYDGSNTYYLDSLKSRFTISRDNAKNSLYLQMNSLRAEDTAVYYCARGLYYYGGNYFAYWGQGTLVTVSS
VL: DIQMTQSPSSLSASVGDRVTITCHASQGISSNIGWLQQKPGKAFKGLIYQGSNLEDGVPSRFSGSGSGADYTLTISSLQPEDFATYYCVQFAQFPPTFGQGTKLEIKR
notes: as for B3
killing of tumour cells by PBMC/NK cells relative to the reference antibody (fold) [2]: ≥ 2 倍 (fold) | EC50 [3]: 0.159 nM

B5: 人源化ab7抗体 (humanized anti-TIM-3 antibody ab7) (antibody, human IgG4 S228P, kappa, V domains shown)
VH: EVQLVESGGGLVKPGGSLRLSCAASGFTFSDYYMAWVRQAPGKGLEWVANINYDGSNTYYLDSLKSRFTISRDNAKNSLYLQMNSLRAEDTAVYYCARGLYYYGGNYFAYWGQGTLVTVSS
VL: DIQMTQSPSSLSASVGDRVTITCHASQGISSNIGWLQQKPGKAFKGLIYQGSNLEDGVPSRFSGSGSGTDFTLTISSLQPEDFATYYCVQFAQFPPTFGQGTKLEIKR
notes: as for B3
EC50 [3]: 0.154 nM

B6: 对照抗体 ABTIM3 (reference anti-TIM-3 antibody, sequence from WO2015117002A1) (antibody, V domains shown)
VH: QVQLQQPGAELVKPGASVKMSCKASGYTFTSYNMHWIKQTPGQGLEWIGDIYPGNGDTSYNQKFKGKATLTADKSSSTVYMQLSSLTSEDSAVYYCARVGGAFPMDYWGQGTSVTVSS
VL: DIVLTQSPASLAVSLGQRATISCRASESVEYYGTSLMQWYQQKPGQPPKLLIYAASNVESGVPARFSGSGSGTDFSLNIHPVEEDDIAIYFCQQSRKDPSTFGGGTKLEIK
EC50 [3]: 0.245 nM and 0.13 nM
